Measurements: patent publication US20110256557A1, “IDENTIFYING PARATHYROID HORMONE AGONISTS AND ANTAGONISTS” (DISCOVERYBIOMED, INC., priority 2008, published 2011)

Tests used:
β-catenin = experiment: Western blot of cytosolic β-catenin in UMR-106 cells; assay type: cell-based, rat
Procedure: (§1) Cells were harvested in cavitation buffer (5 mM HEPES, pH 7.4, 3 mM MgCl2, 1 mM EGTA, 250 mM sucrose) containing protease and phosphatase inhibitors and homogenized by nitrogen cavitation (200 p.s.i., for 5 minutes) in a cell disruption bomb (Parr Instrument Co.; Moline, Ill.). The cell homogenate was centrifuged twice at 700 g for 10 minutes to pellet the nuclei. The supernatant was further centrifuged at 100,000 g (Beckman SW50.1 rotor) for 1 hour to separate the membrane and cytosol fractions, and the resulting membrane pellet was washed three times with cavitation buffer before use in the assays (Zhang et al., Biochem. J. 343:541-9 (1999)). Immunoprecipitation and Western blot analysis of cell lysates were performed as described previously (Wan et al., Am. J. Pathol. 166:1379-92 (2005)).

LRP6-PTH1R complex = target: T1, LRP6-PTH1R complex (Rattus norvegicus, UniProt P25961); experiment: Co-immunoprecipitation of endogenous LRP6 and PTH1R in UMR-106 cells; assay type: cell-based; details: IP with antibodies to LRP6, time-dependent
T1 construct: endogenous LRP6 and endogenous PTH1R in UMR-106 cells; endogenous in cells; host or cells: UMR-106
T1 sequence (P25961 27-591): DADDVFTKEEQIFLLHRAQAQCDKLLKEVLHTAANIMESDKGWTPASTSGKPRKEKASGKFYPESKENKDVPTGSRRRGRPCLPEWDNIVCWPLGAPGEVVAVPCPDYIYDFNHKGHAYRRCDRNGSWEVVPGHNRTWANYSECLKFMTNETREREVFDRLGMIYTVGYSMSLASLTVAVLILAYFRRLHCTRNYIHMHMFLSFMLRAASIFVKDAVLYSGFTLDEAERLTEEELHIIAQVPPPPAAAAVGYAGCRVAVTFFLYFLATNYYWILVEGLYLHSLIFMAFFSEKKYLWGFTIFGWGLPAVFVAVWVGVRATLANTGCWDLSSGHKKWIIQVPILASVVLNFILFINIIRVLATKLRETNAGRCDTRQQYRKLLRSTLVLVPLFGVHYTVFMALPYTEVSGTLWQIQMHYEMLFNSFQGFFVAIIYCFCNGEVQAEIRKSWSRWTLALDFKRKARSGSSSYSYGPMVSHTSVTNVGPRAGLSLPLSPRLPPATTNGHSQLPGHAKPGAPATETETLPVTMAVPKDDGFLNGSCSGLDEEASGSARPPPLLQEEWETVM
Procedure: as §1

CFP-PTH1R and YFP-LRP6 = target: T2, CFP-PTH1R and YFP-LRP6 (Homo sapiens, UniProt Q03431); experiment: Photobleaching-based FRET of CFP-PTH1R and YFP-LRP6 in HEK293 cells; assay type: cell-based
T2 construct: expressed in transfected cells; host or cells: HEK293
T2 sequence (Q03431 27-593): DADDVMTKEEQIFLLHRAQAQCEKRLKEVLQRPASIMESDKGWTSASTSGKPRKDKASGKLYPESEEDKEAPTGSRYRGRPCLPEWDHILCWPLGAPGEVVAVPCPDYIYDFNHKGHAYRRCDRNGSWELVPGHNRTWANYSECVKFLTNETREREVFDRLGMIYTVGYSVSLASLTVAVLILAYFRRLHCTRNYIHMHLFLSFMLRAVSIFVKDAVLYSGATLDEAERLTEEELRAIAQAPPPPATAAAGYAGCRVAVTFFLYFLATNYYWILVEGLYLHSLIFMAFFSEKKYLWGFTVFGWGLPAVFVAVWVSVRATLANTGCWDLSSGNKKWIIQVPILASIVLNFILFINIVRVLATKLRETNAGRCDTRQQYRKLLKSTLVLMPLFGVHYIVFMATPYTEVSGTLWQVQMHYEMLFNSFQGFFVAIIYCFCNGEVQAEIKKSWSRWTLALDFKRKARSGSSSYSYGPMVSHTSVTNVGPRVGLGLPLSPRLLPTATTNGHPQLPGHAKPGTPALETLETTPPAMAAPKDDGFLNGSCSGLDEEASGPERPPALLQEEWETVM
Text: PTH1R and BMPRII cDNAs were cloned into ECFP-N1, and LRP6 and mLRP4T100 cDNAs were cloned into EYFP—N1 (Clonetech; Palo Alto, Calif.) expression vectors. These vectors were modified by site-directed mutagenesis that prevents the self-dimerization (Bhatia et al., Proc. Natl. Acad. Sci. USA 102:15569-74 (2005)). CFP and YFP were fused at the C-termini of the receptors. Because CFP-PTH1R or CFP-BMPRII (the fluorescent FRET donors) is quenched when in the proximity of YFP-LRP6 or YFP-mLRP4T100 (the acceptors), FRET efficiency can be measured by comparing donor fluorescence pre- and post-photobleaching of the acceptor. […] HEK293 cells on coverslips in 35 mm dishes were cotransfected with 0.1 μg of each plasmid. Cells were observed using Leica TCS SP II AOBS laser-scanning confocal microscope. An excitation wavelength of 405 nm and an emission range of 416-492 nm, and an excitation wavelength of 514 nm and an emission range of 525-600 nm were used to acquire images of CFP and YFP, respectively. YFP was photobleached by using full power of the 514 nm line for 1-2 minutes. An image of CFP and YFP fluorescence after photobleaching was obtained by using the respective filter sets. Images were representatives of three experiments. The FRET efficiencies were calculated according to: FRET eff %=[(Donorpost−Donorpre)/(Donorpost)]

In the case of Parathyroid hormone [PTH], the “abundance of β-catenin in the cytosol” value (β-catenin) is reported as “enhanced”, the “complex formation of PTH1R with endogenous LRP6” value (LRP6-PTH1R complex) is reported as “formed a complex with endogenous LRP6 in response to PTH in a time-dependent manner” and the “FRET efficiency between CFP-PTH1R and YFP-LRP6” value (CFP-PTH1R and YFP-LRP6) is reported as “increased”. The “FRET efficiency in control pairs YFP-LRP6/CFP-BMPRII and CFP-PTH1R/YFP-mLRP4T100” value (CFP-PTH1R and YFP-LRP6) was “did not enhance the FRET efficiency”.
